Measured values reported in patent publication US20230002497A1 (INSERM INSTITUT NATIONAL DE LA SANTE ET DE LA RECHERCHE …, published 2023).

Molecular target: T1, recombinant human IL-20Rb (human, UniProt Q6UXL0 30-233)
T1 construct: also called human recombinant IL-20RB; recombinant IL-20RB
T1 sequence: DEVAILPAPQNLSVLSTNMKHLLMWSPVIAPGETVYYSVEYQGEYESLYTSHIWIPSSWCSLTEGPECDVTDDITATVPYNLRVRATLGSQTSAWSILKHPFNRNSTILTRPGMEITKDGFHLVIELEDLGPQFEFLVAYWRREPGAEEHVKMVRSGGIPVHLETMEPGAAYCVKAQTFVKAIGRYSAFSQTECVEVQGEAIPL
Assay: ELISA on coated recombinant IL-20Rb (FIG. 8)

B1: B7 antibody (native B7 clone), human anti-IL-20Rb antibody (antibody, mouse IgG2a, V domains shown)
VH: EVQLVESGGSLVKPGGSLRLSCAASGFTFSNYSMNWVRQAPGKGLEWISYISGSSRYISYADFVKGRFTISRDNATNSLYLQMNSLRAEDTAVYYCVRSYYGMDVWGRGTLVTVSS
VL: QSVLTQPASVSGSPGQSITISCAGTSSDVGGNYYVSWYQQHPGKAPKLMIYGDSYRPSGVSNRFSGSKSGNTASLTISGLQAEDEADYYCSSYTYYSTRVFGGGTKLAVLG
Question: Does B1 bind?
Answer: binds
